# Target: HLA-A*02:01 (Homo sapiens, UniProt P04439, D140Y/D185E/D98H/E176V/E277Q/G131W/G231S/I119V/I121R/I166T/I218V/L300P/L318F/N151K/N90K/P208A/P217A/Q86G/Q94H/R138H/R169H/T345S)
# Assay: MHC binding assay: UV-ligand exchange with beta2m ELISA (peptide exchange yield)
# Settings: binding to HLA-A*02:01
# Procedure, shortened: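 Values give exchange yield, measured by β2m ELISA: 100-fold-diluted monomers bound to streptavidin plates (1h, 37° C), probed with HRP anti-β2m at 2 ug/ml and read at 450 nm after TMB. Monomers came from UV-triggered cleavage of a photolabile peptide and exchange for the test peptide.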
row,Substance,"Peptide exchange (MHC class I binding score, peptide exchange yield)"
1,34 (ILVEADSLWVV; listed as Homo sapiens) [compound 34],“+++” (≥50 = +++)
2,46 (ILTEENIHL; listed as Homo sapiens) [compound 46],“+++” (≥50 = +++)
3,596 (ALLDQTKTLAESAL; listed as Homo sapiens) [compound 596],“+++” (≥50 = +++)
4,615 (VLPPDTDPA; listed as Homo sapiens) [compound 615],“++” (≥20% = ++)
5,246 (LLWEVVSQL; listed as Homo sapiens) [compound 246],“+++” (≥50 = +++)
6,270 (LLLDEEGTFSL; listed as Homo sapiens) [compound 270],“++” (≥20% = ++)
7,573 (ILVANAIVGV; listed as Homo sapiens) [compound 573],“+++” (≥50 = +++)
8,407 (YLMDLINFL; listed as Homo sapiens) [compound 407],“+++” (≥50 = +++)
9,474 (YLDPALELGPRNV; listed as Homo sapiens) [compound 474],“+++” (≥50 = +++)
10,505 (SLAPGDVVRQV; listed as Homo sapiens) [compound 505],“++” (≥20% = ++)
11,115 (AIAGAGILYGV; listed as Homo sapiens) [compound 115],“++” (≥20% = ++)
12,267 (ALQDFLLSV; listed as Homo sapiens) [compound 267],“+++” (≥50 = +++)
13,577 (VMFEDGVLMRL; listed as Homo sapiens) [compound 577],“+++” (≥50 = +++)
14,43 (VLSSLEINI; listed as Homo sapiens) [compound 43],“++” (≥20% = ++)
15,367 (SLQNHNHQL; listed as Homo sapiens) [compound 367],“+++” (≥50 = +++)
16,82 (FLSSVTYNL; listed as Homo sapiens) [compound 82],“+++” (≥50 = +++)
17,383 (ALLELENSVTL; listed as Homo sapiens) [compound 383],“+++” (≥50 = +++)
18,402 (VLFSGALLGL; listed as Homo sapiens) [compound 402],“++” (≥20% = ++)
19,136 (YLADPSNLFVV; listed as Homo sapiens) [compound 136],“+++” (≥50 = +++)
20,564 (TVTNAVVTV; listed as Homo sapiens) [compound 564],“+++” (≥50 = +++)
21,218 (SALEELVNV; listed as Homo sapiens) [compound 218],“++” (≥20% = ++)

row,Substance,"Peptide exchange (MHC class I binding score, peptide exchange yield)"
1,274 (SLLFSLFEA; listed as Homo sapiens) [compound 274],“++” (≥20% = ++)
2,556 (FLTDLEDLTL; listed as Homo sapiens) [compound 556],“+++” (≥50 = +++)
3,447 (QLVPALAKV; listed as Homo sapiens) [compound 447],“++” (≥20% = ++)
4,497 (GLLEKLTAI; listed as Homo sapiens) [compound 497],“+++” (≥50 = +++)
5,440 (ALADGVTMQV; listed as Homo sapiens) [compound 440],“++” (≥20% = ++)
6,444 (GLLRDEALAEV; listed as Homo sapiens) [compound 444],“+++” (≥50 = +++)
7,605 (KLYEAVPQL; listed as Homo sapiens) [compound 605],“+++” (≥50 = +++)
8,616 (VLIDEVESL; listed as Homo sapiens) [compound 616],“+++” (≥50 = +++)
9,400 (SLLTEQDLWTV; listed as Homo sapiens) [compound 400],“++” (≥20% = ++)
10,25 (FLPDEPYIKV; listed as Homo sapiens) [compound 25],“+++” (≥50 = +++)
11,23 (VLLDDIFAQL; listed as Homo sapiens) [compound 23],“+++” (≥50 = +++)
12,99 (ALVSKGLATV; listed as Homo sapiens) [compound 99],“++” (≥20% = ++)
13,137 (TLVLTLPTV; listed as Homo sapiens) [compound 137],“++++” (≥75% = ++++)
14,341 (SQIALNEKLVNL; listed as Homo sapiens) [compound 341],“+++” (≥50 = +++)
15,330 (QLALKVEGV; listed as Homo sapiens) [compound 330],“+++” (≥50 = +++)
16,299 (YLLETSGNL; listed as Homo sapiens) [compound 299],“+++” (≥50 = +++)
17,162 (YQQAQVPSV; listed as Homo sapiens) [compound 162],“+++” (≥50 = +++)
18,91 (IMQDFPAEIFL; listed as Homo sapiens) [compound 91],“++++” (≥75% = ++++)
19,56 (KLYEGIPVLL; listed as Homo sapiens) [compound 56],“++++” (≥75% = ++++)
20,6 (VLVSDGVHSV; listed as Homo sapiens) [compound 6],“+++” (≥50 = +++)
21,550 (FLYDEIEAEVNL; listed as Homo sapiens) [compound 550],“+++” (≥50 = +++)

row,Substance,"Peptide exchange (MHC class I binding score, peptide exchange yield)"
1,221 (ALYEEGLLL; listed as Homo sapiens) [compound 221],“++” (≥20% = ++)
2,159 (GLVGNPLPSV; listed as Homo sapiens) [compound 159],“++++” (≥75% = ++++)
3,340 (ALLSMTFPL; listed as Homo sapiens) [compound 340],“++++” (≥75% = ++++)
4,527 (FLLEPGNLEV; listed as Homo sapiens) [compound 527],“++++” (≥75% = ++++)
5,296 (FMEGAIIYV; listed as Homo sapiens) [compound 296],“+++” (≥50 = +++)
6,553 (SLLNQDLHWSL; listed as Homo sapiens) [compound 553],“++++” (≥75% = ++++)
7,403 (KLYDRILRV; listed as Homo sapiens) [compound 403],“++” (≥20% = ++)
8,258 (ELAERVPAI; listed as Homo sapiens) [compound 258],“++” (≥20% = ++)
9,108 (ALFPGVALLLA; listed as Homo sapiens) [compound 108],“++++” (≥75% = ++++)
10,35 (KINDTIYEV; listed as Homo sapiens) [compound 35],“+++” (≥50 = +++)
11,499 (KIFDIDEAEEGV; listed as Homo sapiens) [compound 499],“++” (≥20% = ++)
12,612 (YLYNEGLSV; listed as Homo sapiens) [compound 612],“+++” (≥50 = +++)
13,286 (YLFPGIPEL; listed as Homo sapiens) [compound 286],“+++” (≥50 = +++)
14,462 (KLAKQPETV; listed as Homo sapiens) [compound 462],“+++” (≥50 = +++)
15,461 (VMFRTPLASV; listed as Homo sapiens) [compound 461],“++” (≥20% = ++)
16,439 (YLLQEIYGI; listed as Homo sapiens) [compound 439],“+++” (≥50 = +++)
17,443 (GLWEIENNPTV; listed as Homo sapiens) [compound 443],“+++” (≥50 = +++)
18,396 (ALLPDLPAL; listed as Homo sapiens) [compound 396],“+++” (≥50 = +++)
19,386 (ILFRYPLTI; listed as Homo sapiens) [compound 386],“+++” (≥50 = +++)

# Source: patent US10464978B2, “Peptides and combination of peptides for use in immunotherapy against ovarian cancer and other cancers” (immatics biotechnologies GmbH, priority 2015, dated 2019)
